Earlier results on three substances are cited in article PMC6121496.

“And” between values parts separate entries of the source, which are not always exact repeats. Equal values may be shown once. Read-outs that look alike come from different tables or passages of the source.

The term Kd denotes the free concentration of one partner at which half of the binding sites on the other are occupied at equilibrium, for simple one-to-one binding. As a reminder, the Ki is the dissociation constant of the complex between target and ligand, obtained from inhibition or displacement.

Series [1] addresses PC1 beta-lactamase (Staphylococcus aureus) (UniProt P00807). Briefly: stopped flow fluorometry, ITC.
Series [2] concerns the target TEM-1 beta-lactamase (Escherichia coli) (UniProt P62593).
For series [3] the target is unchanged. This is another data set of the same source.
The target is the same in series [4]. The source holds these as a separate data set.
For series [5] the target is unchanged. The source holds these as a separate data set.
Series [6] addresses KPC-2 beta-lactamase (Klebsiella pneumoniae) (UniProt Q9F663).
Series [7] concerns the target TEM-1 beta-lactamase (Escherichia coli) (UniProt P62593). Nature of the series: SPR. On the technique in general: In SPR one partner is held on a chip, and binding of the other changes the refractive index at the surface.
The target is the same in series [8]. Briefly: SPR. The source holds these as a separate data set.
Series [9] has as its target SME-1 beta-lactamase (Serratia marcescens) (UniProt P52682). Nature of the series: enzyme inhibition.
Series [10] addresses PC1 beta-lactamase (Staphylococcus aureus) (UniProt P00807). Briefly: enzyme inhibition.
The target in series [11] is CTX-M14 beta-lactamase (Escherichia coli). Nature of the series: enzyme inhibition.
The target of series [12] is KPC-3 beta-lactamase (Klebsiella pneumoniae) (UniProt Q9F663). Nature of the series: enzyme inhibition.
For series [13], the target named is SHV-1 beta-lactamase (Klebsiella pneumoniae) (UniProt P0AD64). Briefly: enzyme inhibition.
The target of series [14] is TEM-1 beta-lactamase (Escherichia coli) (UniProt P62593). This is another data set of the same source.
Series [15] has the same target. The source holds these as a separate data set.
Series [16] shares this target. This is another data set of the same source.

UniProt P62593, sequence (P62593 24-286): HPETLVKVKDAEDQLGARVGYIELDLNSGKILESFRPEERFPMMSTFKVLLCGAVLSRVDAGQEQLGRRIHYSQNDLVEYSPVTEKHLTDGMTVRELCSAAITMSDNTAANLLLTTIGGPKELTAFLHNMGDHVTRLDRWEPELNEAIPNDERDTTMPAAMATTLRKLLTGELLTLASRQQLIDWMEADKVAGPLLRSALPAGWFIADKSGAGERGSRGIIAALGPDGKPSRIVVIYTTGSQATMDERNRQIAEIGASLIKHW
UniProt P0AD64, sequence (P0AD64 22-286): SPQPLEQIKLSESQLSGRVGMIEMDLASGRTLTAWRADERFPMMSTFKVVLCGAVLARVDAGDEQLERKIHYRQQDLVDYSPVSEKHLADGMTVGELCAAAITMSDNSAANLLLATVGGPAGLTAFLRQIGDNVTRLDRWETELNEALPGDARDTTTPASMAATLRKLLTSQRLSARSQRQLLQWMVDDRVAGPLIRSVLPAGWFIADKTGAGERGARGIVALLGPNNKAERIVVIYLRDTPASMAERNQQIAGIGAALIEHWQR
UniProt P00807, sequence (P00807 25-281): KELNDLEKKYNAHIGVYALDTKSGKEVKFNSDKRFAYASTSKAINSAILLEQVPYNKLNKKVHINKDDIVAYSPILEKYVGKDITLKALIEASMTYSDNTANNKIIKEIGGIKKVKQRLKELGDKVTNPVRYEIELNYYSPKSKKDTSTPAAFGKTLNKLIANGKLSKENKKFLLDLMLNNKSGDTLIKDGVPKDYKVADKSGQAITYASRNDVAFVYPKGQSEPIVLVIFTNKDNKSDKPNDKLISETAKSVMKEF
UniProt P52682, sequence (P52682 28-294): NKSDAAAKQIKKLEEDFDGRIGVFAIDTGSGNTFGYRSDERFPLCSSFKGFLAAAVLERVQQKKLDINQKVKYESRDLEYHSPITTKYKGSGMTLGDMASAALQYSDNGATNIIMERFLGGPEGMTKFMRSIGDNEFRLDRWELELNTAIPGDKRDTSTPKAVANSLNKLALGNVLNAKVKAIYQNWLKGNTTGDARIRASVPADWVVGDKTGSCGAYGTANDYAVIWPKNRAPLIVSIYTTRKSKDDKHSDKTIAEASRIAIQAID

As for BLIP (from UniProt P35804), the Kd in series [1] is 380 nM; in series [4], 0.4 nM; in [5] it was 0.3 nM; in series [7], 15 nM; in [8], 1.25 nM; in [13], 1250 nM. Besides, the Kd in series [14] is 1.3 nM and 1.7 nM. Also, the Ki in series [2] was 0.5 nM; in [3] it was 0.4 nM; in series [6], 1.2 nM; in series [9], 2.4 nM; in series [10], 350 nM; in [11], 810 nM. The Ki is 0.25 nM in [12]; 1100 nM and 1130 nM in [13].
As to “BLIP peptide 30-49 (from UniProt P35804)”, the Ki in series [15] was 352000 nM.
In the case of BLIP peptide (from UniProt P35804), in series [16], the Ki is 58000 nM.
